In paper PMC10697951:

Columns and labels:
Test in all cases: MST
[1] = tested on: SUV420H1(1-390) R357H (human); conditions: 40 uM SAM; text says NCP H2A, legend H4K20M; histone H4 K20M; MST: 20 mM HEPES pH 7.5, 50 mM NaCl (listed twice), 50 mM KCl, 1 mg/mL BSA, 0.05% Tween-20, 40 uM SAM, 2 mM DTT, room temperature; EMSA: 25 mM HEPES pH 7.5 …
[2] = tested on: SUV420H1(1-390) K258A (human); conditions: histone H4 K20M; MST: 20 mM HEPES pH 7.5, 50 mM NaCl (listed twice), 50 mM KCl, 1 mg/mL BSA, 0.05% Tween-20, 40 uM SAM, 2 mM DTT, room temperature; EMSA: 25 mM HEPES pH 7.5 …
[3] = tested on: SUV420H1(1-390) S255F (human); conditions: histone H4 K20M; MST: 20 mM HEPES pH 7.5, 50 mM NaCl (listed twice), 50 mM KCl, 1 mg/mL BSA, 0.05% Tween-20, 40 uM SAM, 2 mM DTT, room temperature; EMSA: 25 mM HEPES pH 7.5 …
[4] = tested on: SUV420H1(1-390) Y349A (human); conditions: 40 uM SAM; text says NCP H2A, legend H4K20M; histone H4 K20M; MST: 20 mM HEPES pH 7.5, 50 mM NaCl (listed twice), 50 mM KCl, 1 mg/mL BSA, 0.05% Tween-20, 40 uM SAM, 2 mM DTT, room temperature; EMSA: 25 mM HEPES pH 7.5 …
[5] = tested on: SUV420H1(1-390) R352A (human); conditions: 40 uM SAM; text says NCP H2A, legend H4K20M; histone H4 K20M; MST: 20 mM HEPES pH 7.5, 50 mM NaCl (listed twice), 50 mM KCl, 1 mg/mL BSA, 0.05% Tween-20, 40 uM SAM, 2 mM DTT, room temperature; EMSA: 25 mM HEPES pH 7.5 …
[6] = tested on: SUV420H1(1-390) R257A (human); conditions: histone H4 K20M; MST: 20 mM HEPES pH 7.5, 50 mM NaCl (listed twice), 50 mM KCl, 1 mg/mL BSA, 0.05% Tween-20, 40 uM SAM, 2 mM DTT, room temperature; EMSA: 25 mM HEPES pH 7.5 …
[7] = tested on: SUV420H1(1-390) S283L (human); conditions: histone H4 K20M; MST: 20 mM HEPES pH 7.5, 50 mM NaCl (listed twice), 50 mM KCl, 1 mg/mL BSA, 0.05% Tween-20, 40 uM SAM, 2 mM DTT, room temperature; EMSA: 25 mM HEPES pH 7.5 …
[8] = tested on: SUV420H1(1-390) R220A (human); conditions: 40 uM SAM; text says NCP H2A, legend H4K20M; histone H4 K20M; MST: 20 mM HEPES pH 7.5, 50 mM NaCl (listed twice), 50 mM KCl, 1 mg/mL BSA, 0.05% Tween-20, 40 uM SAM, 2 mM DTT, room temperature; EMSA: 25 mM HEPES pH 7.5 …
[9] = tested on: SUV420H1(1-390) R357A (human); conditions: 40 uM SAM; text says NCP H2A, legend H4K20M; histone H4 K20M; MST: 20 mM HEPES pH 7.5, 50 mM NaCl (listed twice), 50 mM KCl, 1 mg/mL BSA, 0.05% Tween-20, 40 uM SAM, 2 mM DTT, room temperature; EMSA: 25 mM HEPES pH 7.5 …
[10] = tested on: SUV420H1(1-390) R286A (human); conditions: histone H4 K20M; MST: 20 mM HEPES pH 7.5, 50 mM NaCl (listed twice), 50 mM KCl, 1 mg/mL BSA, 0.05% Tween-20, 40 uM SAM, 2 mM DTT, room temperature; EMSA: 25 mM HEPES pH 7.5 …

Question: How did the Kd [1] turn out when NCP H2A, H4K20M was run?
Answer: The Kd was 83 nM.

Question: What about the Kd [2] of the same substance?
Answer: The Kd was 112 nM.

Question: What about the Kd [3] of the same substance?
Answer: The Kd was 182 nM.

Question: What about the Kd [4] of the same substance?
Answer: Its Kd is 108 nM.

Question: And the Kd [5]?
Answer: Its Kd is 220 nM.

Question: And the Kd [6]?
Answer: Its Kd is 144 nM.

Question: And the Kd [7]?
Answer: Its Kd is 85 nM.

Question: And the Kd [8]?
Answer: The Kd was 93 nM.

Question: And the Kd [9]?
Answer: Its Kd is 213 nM.

Question: And the Kd [10]?
Answer: Its Kd is 323 nM.
